Patent publication US6218168A, “Process for preparing O-acetylserine, L-cysteine and L-cysteine-related products” (Consortium fur elektrochemische Inudstrie GmbH, priority 1995, dated 2001)

Tested on: serine acetyltransferase
Assay: Serine acetyltransferase enzyme activity test with and without L-cysteine (inhibitor constant Ki, specific activity)
Format: biochemical, E. coli
Conditions: for Ki: inhibitor L-cysteine
Source text: Any method which enables the activity of the serine acetyltransferase to be determined in the presence of cysteine can be used for determining the cysteine sensitivity of this enzyme. For example, the serine acetyltransferase activity can be determined using the method described by Kredich and Tomkins, J. Biol. Chem. 241: 4955-4965 (1966). In this test, the enzyme test mixture contains the substrate, L-serine, and the cofactor, acetyl-coenzyme A. The reaction is started by adding enzyme and monitored, in a spectro photometer, by observing the decrease in absorption at 232 nm which is elicited by the cleavage of the thioester bond in the acetyl-coenzyme A.
The above-described enzyme test is suitable for determining the cysteine sensitivity of any serine acetyltransferase enzyme, including the enzymes which have a modified carboxyl terminus. Inhibition of the serine acetyltransferase activity is tested in the presence of differing concentrations of L-cysteine in the reaction mixture. The catalytic activity of the different serine acetyltransferase enzymes is determined in the presence and absence of L-cysteine, and the inhibitor constant, Ki, is ascertained from this (Kredich and Tomkins, J. Biol. Chem., 241, 4955-4965 (1966)).
In order to investigate the biochemical basis of the cysteine secretion of the revertants, the activity of the serine acetyltransferase was determined in vitro, and the ability of cysteine to inhibit the enzyme was measured. For the determination, use was made of S30 extracts (cell homogenates centrifuged at 30,000 g and 4° C. for 20 minutes) of the selected revertants, the starting strains and the comparison strain, E. coli W3110 (ATTC 27325).
The biochemical parameters such as enzyme activity and inhibitor constant, Ki, were determined in an analogous manner to that described in Example 1.
The plasmids resulting from this cloning were designated pACYC184/cysE-Del in accordance with the extent of their deletion (cf. FIG. 9 for the plasmid map). Determination of the enzymic activity and the inhibitor constant, Ki, and also the cross-feeding test, were carried out in analogy with the description in Example 1. DNA sequence analysis was used to confirm that the deletions had been correctly introduced.
Determination of the enzymic activity and of the inhibitor constant Ki, and also the cross-feeding test, were carried out in analogy with the description in Example 1.

[1] = Table 1b, carboxyterminal deletions
[2] = Table 6, carboxyterminal deletions
[3] = Table 1a, 1 mM L-serine, 0.1 mM acetyl-CoA
[4] = Table 1a, serine acetyltransferase activity
[5] = Table 2, alleles from chemical mutagenesis

Molecule	spec. act. [1]	Ki [1]	Ki [2]	Ki [3]	spec. act. [4]	Ki [5]
cysE-Del259: carboxyterminal deletion of 14 amino acids, terminal His259 (protein, UniProt P0A9D4 1-259, looked up, fragment) MSCEELEIVWNNIKAEARTLADCEPMLASFYHATLLKHENLGSALSYMLANKLSSPIMPAIAIREVVEEAYAADPEMIASAACDIQAVRTRDPAVDKYSTPLLYLKGFHALQAYRIGHWLWNQGRRALAIFLQNQVSVTFQVDIHPAAKIGRGIMLDHATGIVVGETAVIENDVSILQSVTLGGTGKSGGDRHPKIREGVMIGAGAKILGNIEVGRGAKIGAGSVVLQPVPPHTTAAGVPARIVGKPDSDKPSMDMDQH	0.328 μmol/min x mg	7.5 µM	7.5 µM			
cysE-Del249: carboxyterminal deletion of 24 amino acids, terminal Ser249 (protein, UniProt P0A9D4 1-249, looked up, fragment) MSCEELEIVWNNIKAEARTLADCEPMLASFYHATLLKHENLGSALSYMLANKLSSPIMPAIAIREVVEEAYAADPEMIASAACDIQAVRTRDPAVDKYSTPLLYLKGFHALQAYRIGHWLWNQGRRALAIFLQNQVSVTFQVDIHPAAKIGRGIMLDHATGIVVGETAVIENDVSILQSVTLGGTGKSGGDRHPKIREGVMIGAGAKILGNIEVGRGAKIGAGSVVLQPVPPHTTAAGVPARIVGKPDS	0.420 μmol/min x mg	15 µM	15 µM			
cysE-Del250: carboxyterminal deletion of 23 amino acids, terminal Asp250 (protein, UniProt P0A9D4 1-250, looked up, fragment) MSCEELEIVWNNIKAEARTLADCEPMLASFYHATLLKHENLGSALSYMLANKLSSPIMPAIAIREVVEEAYAADPEMIASAACDIQAVRTRDPAVDKYSTPLLYLKGFHALQAYRIGHWLWNQGRRALAIFLQNQVSVTFQVDIHPAAKIGRGIMLDHATGIVVGETAVIENDVSILQSVTLGGTGKSGGDRHPKIREGVMIGAGAKILGNIEVGRGAKIGAGSVVLQPVPPHTTAAGVPARIVGKPDSD	0.405 μmol/min x mg	20 µM	20 µM			
cysE-Del248: carboxyterminal deletion of 25 amino acids, terminal Asp248 (protein, UniProt P0A9D4 1-248, looked up, fragment) MSCEELEIVWNNIKAEARTLADCEPMLASFYHATLLKHENLGSALSYMLANKLSSPIMPAIAIREVVEEAYAADPEMIASAACDIQAVRTRDPAVDKYSTPLLYLKGFHALQAYRIGHWLWNQGRRALAIFLQNQVSVTFQVDIHPAAKIGRGIMLDHATGIVVGETAVIENDVSILQSVTLGGTGKSGGDRHPKIREGVMIGAGAKILGNIEVGRGAKIGAGSVVLQPVPPHTTAAGVPARIVGKPD	0.270 μmol/min x mg	12.5 µM	12.5 µM			
cysE-Del256: carboxyterminal deletion of 17 amino acids, terminal Met256 (protein, UniProt P0A9D4 1-256, looked up, fragment) MSCEELEIVWNNIKAEARTLADCEPMLASFYHATLLKHENLGSALSYMLANKLSSPIMPAIAIREVVEEAYAADPEMIASAACDIQAVRTRDPAVDKYSTPLLYLKGFHALQAYRIGHWLWNQGRRALAIFLQNQVSVTFQVDIHPAAKIGRGIMLDHATGIVVGETAVIENDVSILQSVTLGGTGKSGGDRHPKIREGVMIGAGAKILGNIEVGRGAKIGAGSVVLQPVPPHTTAAGVPARIVGKPDSDKPSMDM	0.366 μmol/min x mg	12.5 µM	12.5 µM			
cysE-Del258: carboxyterminal deletion of 15 amino acids, terminal Gln258 (protein, UniProt P0A9D4 1-258, looked up, fragment) MSCEELEIVWNNIKAEARTLADCEPMLASFYHATLLKHENLGSALSYMLANKLSSPIMPAIAIREVVEEAYAADPEMIASAACDIQAVRTRDPAVDKYSTPLLYLKGFHALQAYRIGHWLWNQGRRALAIFLQNQVSVTFQVDIHPAAKIGRGIMLDHATGIVVGETAVIENDVSILQSVTLGGTGKSGGDRHPKIREGVMIGAGAKILGNIEVGRGAKIGAGSVVLQPVPPHTTAAGVPARIVGKPDSDKPSMDMDQ	0.256 μmol/min x mg	5 µM	5 µM			
cysE-Del257: carboxyterminal deletion of 16 amino acids, terminal Asp257 (protein, UniProt P0A9D4 1-257, looked up, fragment) MSCEELEIVWNNIKAEARTLADCEPMLASFYHATLLKHENLGSALSYMLANKLSSPIMPAIAIREVVEEAYAADPEMIASAACDIQAVRTRDPAVDKYSTPLLYLKGFHALQAYRIGHWLWNQGRRALAIFLQNQVSVTFQVDIHPAAKIGRGIMLDHATGIVVGETAVIENDVSILQSVTLGGTGKSGGDRHPKIREGVMIGAGAKILGNIEVGRGAKIGAGSVVLQPVPPHTTAAGVPARIVGKPDSDKPSMDMD	0.394 μmol/min x mg	7.5 µM	7.5 µM			
cysEII: feedback-resistant serine acetyltransferase allele, Gly238->Ser238 (protein, UniProt P0A9D4 1-273, looked up, variant G238S) Serine acetyltransferase: MSCEELEIVWNNIKAEARTLADCEPMLASFYHATLLKHENLGSALSYMLANKLSSPIMPAIAIREVVEEAYAADPEMIASAACDIQAVRTRDPAVDKYSTPLLYLKGFHALQAYRIGHWLWNQGRRALAIFLQNQVSVTFQVDIHPAAKIGRGIMLDHATGIVVGETAVIENDVSILQSVTLGGTGKSGGDRHPKIREGVMIGAGAKILGNIEVGRGAKIGAGSVVLQPVPPHTTAASVPARIVGKPDSDKPSMDMDQHFNGINHTFEYGDGI				10 µM	0.068 µmol/min/mg	10 µM
cysEIII: feedback-resistant serine acetyltransferase allele, Gly165->Asp165 (protein, UniProt P0A9D4 1-273, looked up, variant G165D) Serine acetyltransferase: MSCEELEIVWNNIKAEARTLADCEPMLASFYHATLLKHENLGSALSYMLANKLSSPIMPAIAIREVVEEAYAADPEMIASAACDIQAVRTRDPAVDKYSTPLLYLKGFHALQAYRIGHWLWNQGRRALAIFLQNQVSVTFQVDIHPAAKIGRGIMLDHATGIVVDETAVIENDVSILQSVTLGGTGKSGGDRHPKIREGVMIGAGAKILGNIEVGRGAKIGAGSVVLQPVPPHTTAAGVPARIVGKPDSDKPSMDMDQHFNGINHTFEYGDGI				10 µM	0.030 µmol/min/mg	10 µM
